One experiment deals with HLA-A*24:02. In words: IEDB peptide-MHC binding, purified MHC/competitive/fluorescence; filed as Kd, often an IC50 or EC50 that approximates it; ≥ and ≤ were set here for values at or beyond the usual limits of such assays.
Experiment [1] deals with HLA-B*27:05. The experiment is described as above.
Experiment [2] deals with HLA-B*46:01. Described as above.
The target of a further experiment is HLA-A*02:19. The description is as above.
Another experiment deals with HLA-A*02:12. Described as above.
A further experiment concerns the target HLA-A*24:03. The experiment is described as above.
Experiment [3] concerns the target HLA-B*57:01. The experiment is described as above.
The next experiment deals with HLA-A*02:16. The experiment is described as above.
The target of the next experiment is HLA-A*02:03. Described as above.
In the next experiment the target is HLA-A*02:01. The description is as above.
The target of another experiment is HLA-B*18:01. The description is as above.
The target in another experiment is HLA-A*68:02. The experiment is described as above.
A further experiment concerns the target HLA-B*15:17. The description is as above.
Another experiment concerns the target HLA-B*27:03. Described as above.
Experiment [4] addresses HLA-A*31:01. The description is as above. The settings on record: source organism: Influenza A virus (A/Gf/HK/SSP607/2003(H9N2)).
A further experiment concerns the target HLA-A*69:01. Described as above.
For a further experiment, the target named is HLA-B*51:01. The description is as above.
Experiment [5] addresses HLA-B*15:01. The experiment is described as above.
The target of a further experiment is HLA-B*39:01. The description is as above.
For a further experiment, the target named is HLA-A*26:01. The experiment is described as above.
The target in experiment [6] is HLA-B*46:01. The experiment in a line: IEDB peptide-MHC binding, purified MHC/direct/fluorescence; filed as Kd, often an IC50 or EC50 that approximates it; ≥ and ≤ were set here for values at or beyond the usual limits of such assays. To be noted: source organism: Camelpox virus M-96.
The target of a further experiment is HLA-B*58:01. Described as above. The settings on record: source organism: Camelpox virus M-96.
A further experiment concerns the target HLA-B*07:02. The experiment is described as above.
The target in experiment [7] is HLA-B*57:01. The experiment is described as above. To be noted: source organism: Camelpox virus M-96.
In experiment [8] the target is HLA-A*31:01. Described as above. To be noted: source organism: Camelpox virus M-96.
Experiment [9] has as its target HLA-B*15:01. The experiment is described as above. To be noted: source organism: Camelpox virus M-96.
Experiment [10] addresses HLA-B*27:05. The description is as above. The settings on record: source organism: Camelpox virus M-96.
The target of another experiment is HLA-A*01:01. The experiment is described as above. To be noted: source organism: Camelpox virus M-96.
The target of a further experiment is HLA-C*12:03. The experiment is described as above. The settings on record: source organism: Vaccinia virus WR.
The target of another experiment is HLA-B*48:01. The description is as above. The settings on record: source organism: Camelpox virus M-96.
For a further experiment, the target named is HLA-A*30:01. In words: IEDB peptide-MHC binding, purified MHC/competitive/fluorescence; filed as Kd, often an IC50 or EC50 that approximates it; ≥ and ≤ were set here for values at or beyond the usual limits of such assays. The settings on record: source organism: Vaccinia virus WR.
In the next experiment the target is HLA-B*35:01. The experiment is described as above. The settings on record: source organism: Vaccinia virus WR.
The target in another experiment is HLA-A*26:02. Described as above. To be noted: source organism: Vaccinia virus WR.
Another experiment concerns the target HLA-A*11:01. The experiment is described as above. To be noted: source organism: Vaccinia virus WR.
A further experiment has as its target HLA-C*14:02. In words: IEDB peptide-MHC binding, purified MHC/direct/fluorescence; filed as Kd, often an IC50 or EC50 that approximates it; ≥ and ≤ were set here for values at or beyond the usual limits of such assays. To be noted: source organism: Entamoeba histolytica HM-1:IMSS.
The next experiment concerns the target HLA-C*15:02. Described as above. The settings on record: source organism: Entamoeba histolytica HM-1:IMSS.
In the next experiment the target is HLA-A*02:11. The experiment in a line: IEDB peptide-MHC binding, purified MHC/competitive/fluorescence; filed as Kd, often an IC50 or EC50 that approximates it; ≥ and ≤ were set here for values at or beyond the usual limits of such assays. To be noted: source organism: Brucella abortus S19.
The target in the next experiment is HLA-A*03:01. The description is as above. The settings on record: source organism: Brucella abortus S19.
Another experiment deals with HLA-A*29:02. The description is as above. The settings on record: source organism: Brucella abortus S19.
Where [11] appears, read: source organism: Influenza A virus (A/Gf/HK/SSP607/2003(H9N2)).
Setting [12] is: source organism: Vaccinia virus WR.
[13] abbreviates: source organism: Brucella abortus S19.

A value given as a limit tells only on which side of the number the result lay.

The term Kd denotes the equilibrium constant for the complex coming apart. Low readings indicate higher affinity, high ones lower affinity. Sequence RYSGFVRTLF displayed a Kd in the experiment with HLA-A*24:02 (source organism: Influenza A virus (A/turkey/Ohio/313053/2004(H3N2))) of no more than 0.0001 µM.
On to KQWRGDKML, for which the Kd with HLA-B*27:05 [1] (source organism: Bacillus thuringiensis str. Al Hakam) came to 0.0852 µM.
In turn, PYMSALFWI gave a Kd with HLA-A*24:02 (source organism: Cryptosporidium parvum Iowa II) of 0.0008 µM.
Sequence KYNGIITDTI showed a Kd in the experiment with HLA-A*24:02 (source organism: Influenza A virus (A/goose/Guangdong/1/1996(H5N1))) of 0.0002 µM.
AMITYITRK: the dissociation constant (Kd) with HLA-B*46:01 [2] (setting [11]), in the experiment with HLA-A*02:19 (setting [11]), with HLA-A*02:12 (setting [11]), with HLA-A*24:03 (setting [11]), with HLA-B*57:01 [3] (setting [11]) and in the experiment with HLA-A*02:16 (setting [11]) was no less than 20 µM throughout. Besides, the Kd in the experiment with HLA-A*02:03 (setting [11]), with HLA-A*02:01 (setting [11]), in the experiment with HLA-B*18:01 (setting [11]), with HLA-A*68:02 (setting [11]), with HLA-B*15:17 (setting [11]) and with HLA-B*27:03 (setting [11]) was no less than 20 µM throughout. Also, the Kd with HLA-A*31:01 [4] is 0.158 µM; with HLA-A*69:01 (setting [11]), no less than 20 µM; with HLA-B*51:01 (setting [11]) it was no less than 20 µM; with HLA-B*15:01 [5] (setting [11]), no less than 20 µM; in the experiment with HLA-B*39:01 (setting [11]), no less than 20 µM; with HLA-A*26:01 (setting [11]), no less than 20 µM.
For FVFEATKLY, the Kd was no less than 20 µM with HLA-B*46:01 [6]; no less than 20 µM with HLA-B*58:01; no less than 20 µM in the experiment with HLA-B*07:02 (source organism: Camelpox virus M-96); no less than 20 µM with HLA-B*57:01 [7]; no less than 20 µM with HLA-A*31:01 [8]; 0.0177 µM with HLA-B*15:01 [9]. In addition, the Kd was no less than 20 µM in the experiment with HLA-B*27:05 [10]; no less than 20 µM with HLA-A*01:01; no more than 0.001 µM with HLA-C*12:03; no less than 20 µM with HLA-B*48:01; no less than 20 µM with HLA-A*30:01; no less than 20 µM in the experiment with HLA-A*02:01 (setting [12]). Moreover, the equilibrium dissociation constant (Kd) amounted to 0.0496 µM with HLA-A*68:02 (setting [12]); 0.12 µM in the experiment with HLA-B*15:17 (setting [12]); 0.0057 µM in the experiment with HLA-B*35:01; 0.0668 µM with HLA-A*26:02; 0.0167 µM in the experiment with HLA-A*26:01 (setting [12]); 2.08 µM with HLA-A*11:01.
GKLNRLIGK gave a Kd with HLA-B*27:05 [1] (source organism: Influenza A virus (A/Hong Kong/CUHK13527/2003(H3N2))) of 1.84 µM.
With SWLYNYFVF, the Kd in the experiment with HLA-C*14:02 was 0.438 µM; with HLA-C*15:02 it was no less than 20 µM; with HLA-A*24:02 (source organism: Entamoeba histolytica HM-1:IMSS), 0.0003 µM.
As for RLTGREGAV, the results for the equilibrium dissociation constant (Kd) with HLA-B*07:02 (source organism: Pseudomonas aeruginosa) and with HLA-A*02:16 (source organism: Pseudomonas aeruginosa PACS2) were 7.02 µM and 0.345 µM, respectively.
Take KQWIVAGAI: the Kd with HLA-B*46:01 [2] (setting [13]) is no less than 20 µM; with HLA-A*02:19 (setting [13]), no less than 20 µM; with HLA-A*02:12 (setting [13]) it was no less than 20 µM; with HLA-A*24:03 (setting [13]) it was no less than 20 µM; with HLA-A*02:11, no more than 0.0001 µM; with HLA-B*57:01 [3] (setting [13]), no less than 20 µM. Besides, the Kd with HLA-A*02:03 (setting [13]) is no less than 20 µM; with HLA-A*02:01 (setting [13]), 0.0017 µM; with HLA-B*18:01 (setting [13]) it was no less than 20 µM; in the experiment with HLA-A*68:02 (setting [13]) it was no less than 20 µM; with HLA-B*15:17 (setting [13]) it was no less than 20 µM; in the experiment with HLA-B*27:03 (setting [13]), no less than 20 µM. In addition, the Kd in the experiment with HLA-A*03:01, with HLA-A*69:01 (setting [13]), with HLA-B*51:01 (setting [13]), with HLA-B*15:01 [5] (setting [13]), with HLA-B*39:01 (setting [13]) and with HLA-A*26:01 (setting [13]) was no less than 20 µM each time. Further, the Kd in the experiment with HLA-A*29:02 is no less than 20 µM.

Values taken from the Immune Epitope Database (IEDB).
